# Test results from US20150344570A1 (published 2015).
# Tests used:
# FcγRIIb = target: T1, FcγRIIb (human, UniProt P31994 43-217); assay: SPR (Biacore), antibody captured via antigen peptide, FcγR as analyte
# T1 construct: extracellular domain; Soluble His-tagged extracellular domain expressed in FreeStyle293 cells; analyte in Biacore; also called FcgRIIb; 2b; not shown: His tag attached to the C terminus
# T1 sequence (looked up): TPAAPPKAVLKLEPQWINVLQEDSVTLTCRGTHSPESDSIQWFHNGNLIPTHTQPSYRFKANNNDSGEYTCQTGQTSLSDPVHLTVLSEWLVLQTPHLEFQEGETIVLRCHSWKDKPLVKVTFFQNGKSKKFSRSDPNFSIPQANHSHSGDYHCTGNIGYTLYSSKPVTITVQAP
# Description: (§1) The heterodimerized antibodies He Abs in which one of the H chains was introduced with an alteration were assayed for their binding activities to each activating FcγR and inhibitory FcγR according to the method described in Example 4. […] The activating FcγRs in FIGS. 26, 27, 28, and 29 are FcγRIa, FcγRIIa (R), FcγRIIa (H), and FcγRIIIa, respectively.
# (§2) Analysis of interaction between objective antibody and the FcγR was carried out using Biacore T100 (GE Healthcare). HBS-EP+ (GE Healthcare) was used as the running buffer, and the measurement temperature was set to 25° C. Chips produced by immobilizing the antigen peptide by the amine coupling method to a Series S Sencor Chip CM5 (GE Healthcare), or alternatively, chips produced by allowing preliminarily biotinylated antigen peptides to interact with and immobilize onto a Series S Sensor Chip SA (certified) (GE Healthcare) were used. Antibodies of interest were captured onto an antigen peptide-immobilized chip, and allowed to interact to each FcγR diluted with running buffer. To regenerate and repeatedly use the chip, the antibodies captured on the chip were washed off by reacting 10 mM glycine-HCl, pH 1.5.
# FcγRIIa R [1] = target: T2, FcγRIIa R (human, UniProt P12318 34-217); assay: as above
# T2 construct: extracellular domain; Soluble His-tagged extracellular domain expressed in FreeStyle293 cells; analyte in Biacore; also called FcgRIIa R; FcgRIIaR; not shown: His tag attached to the C terminus
# T2 sequence (looked up): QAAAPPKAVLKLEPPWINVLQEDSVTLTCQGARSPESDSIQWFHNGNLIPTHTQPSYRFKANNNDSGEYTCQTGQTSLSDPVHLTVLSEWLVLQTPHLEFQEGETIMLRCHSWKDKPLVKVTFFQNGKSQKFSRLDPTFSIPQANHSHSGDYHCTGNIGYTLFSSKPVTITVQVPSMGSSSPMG
# Description: as §1, §2
# FcγRIIa R [2] = target: T2, FcγRIIa R; assay: ratio of He/Con_2aR to He/Con_2b (binding to FcγRIIb as reference); SPR
Binder,He/Con_2b (IIb binding relative to GpH7-A5/GpH7-B3/GpL16-k0) (FcγRIIb),He/Con_2aR (IIaR binding relative to GpH7-A5/GpH7-B3/GpL16-k0) (FcγRIIa R [1]),He_2aR/2b (IIaR/IIb) (FcγRIIa R [2])
"GpH7-A5/GpH7-B3 variant A330_08L/GpL16-k0 (antibody, human IgG1, kappa, Heterodimerized anti-glypican-3 IgG1 antibody; alteration only in the GpH7-B3 H chain; position in EU numbering; also called He Ab) heavy 1: not shown heavy 2: not shown light: DIVMTQSPLSLPVTPGEPASISCQASESLVHSNRNTYLHWYLQKPGQSPQLLIYKVSNRFSGVPDRFSGSGSGTDFTLKISRVEAEDVGVYYCSQNTHVPPTFGQGTKVEIERTVAAPSVFIFPPSDEQLKSGTASVVCLLNNFYPREAKVQWKVDNALQSGNSQESVTEQDSKDSTYSLSSTLTLSKADYEKHKVYACEVTHQGLSSPVTKSFNRGEC",70.5 % of control (control = 100),88.8 % of control (control = 100),1.26
"GpH7-A5/GpH7-B3 variant N325_02A/GpL16-k0 (antibody, human IgG1, kappa, Heterodimerized anti-glypican-3 IgG1 antibody; alteration only in the GpH7-B3 H chain; position in EU numbering; also called He Ab) heavy 1: not shown heavy 2: not shown light: DIVMTQSPLSLPVTPGEPASISCQASESLVHSNRNTYLHWYLQKPGQSPQLLIYKVSNRFSGVPDRFSGSGSGTDFTLKISRVEAEDVGVYYCSQNTHVPPTFGQGTKVEIERTVAAPSVFIFPPSDEQLKSGTASVVCLLNNFYPREAKVQWKVDNALQSGNSQESVTEQDSKDSTYSLSSTLTLSKADYEKHKVYACEVTHQGLSSPVTKSFNRGEC",64.4 % of control (control = 100),84.1 % of control (control = 100),1.31
"GpH7-A5/GpH7-B3 variant N325_11K/GpL16-k0 (antibody, human IgG1, kappa, Heterodimerized anti-glypican-3 IgG1 antibody; alteration only in the GpH7-B3 H chain; position in EU numbering; also called He Ab) heavy 1: not shown heavy 2: not shown light: DIVMTQSPLSLPVTPGEPASISCQASESLVHSNRNTYLHWYLQKPGQSPQLLIYKVSNRFSGVPDRFSGSGSGTDFTLKISRVEAEDVGVYYCSQNTHVPPTFGQGTKVEIERTVAAPSVFIFPPSDEQLKSGTASVVCLLNNFYPREAKVQWKVDNALQSGNSQESVTEQDSKDSTYSLSSTLTLSKADYEKHKVYACEVTHQGLSSPVTKSFNRGEC",10.4 % of control (control = 100),16.2 % of control (control = 100),1.57
"GpH7-A5/GpH7-B3 variant A330_14T/GpL16-k0 (antibody, human IgG1, kappa, Heterodimerized anti-glypican-3 IgG1 antibody; alteration only in the GpH7-B3 H chain; position in EU numbering; also called He Ab) heavy 1: not shown heavy 2: not shown light: DIVMTQSPLSLPVTPGEPASISCQASESLVHSNRNTYLHWYLQKPGQSPQLLIYKVSNRFSGVPDRFSGSGSGTDFTLKISRVEAEDVGVYYCSQNTHVPPTFGQGTKVEIERTVAAPSVFIFPPSDEQLKSGTASVVCLLNNFYPREAKVQWKVDNALQSGNSQESVTEQDSKDSTYSLSSTLTLSKADYEKHKVYACEVTHQGLSSPVTKSFNRGEC",77.9 % of control (control = 100),95.5 % of control (control = 100),1.23
"GpH7-A5/GpH7-B3 variant I336_20W/GpL16-k0 (antibody, human IgG1, kappa, Heterodimerized anti-glypican-3 IgG1 antibody; alteration only in the GpH7-B3 H chain; position in EU numbering; also called He Ab) heavy 1: not shown heavy 2: not shown light: DIVMTQSPLSLPVTPGEPASISCQASESLVHSNRNTYLHWYLQKPGQSPQLLIYKVSNRFSGVPDRFSGSGSGTDFTLKISRVEAEDVGVYYCSQNTHVPPTFGQGTKVEIERTVAAPSVFIFPPSDEQLKSGTASVVCLLNNFYPREAKVQWKVDNALQSGNSQESVTEQDSKDSTYSLSSTLTLSKADYEKHKVYACEVTHQGLSSPVTKSFNRGEC",20.3 % of control (control = 100),30.3 % of control (control = 100),1.5
"GpH7-A5/GpH7-B3 variant A330_18N/GpL16-k0 (antibody, human IgG1, kappa, Heterodimerized anti-glypican-3 IgG1 antibody; alteration only in the GpH7-B3 H chain; position in EU numbering; also called He Ab) heavy 1: not shown heavy 2: not shown light: DIVMTQSPLSLPVTPGEPASISCQASESLVHSNRNTYLHWYLQKPGQSPQLLIYKVSNRFSGVPDRFSGSGSGTDFTLKISRVEAEDVGVYYCSQNTHVPPTFGQGTKVEIERTVAAPSVFIFPPSDEQLKSGTASVVCLLNNFYPREAKVQWKVDNALQSGNSQESVTEQDSKDSTYSLSSTLTLSKADYEKHKVYACEVTHQGLSSPVTKSFNRGEC",63.7 % of control (control = 100),81.1 % of control (control = 100),1.27
"GpH7-A5/GpH7-B3 variant N325_05P/GpL16-k0 (antibody, human IgG1, kappa, Heterodimerized anti-glypican-3 IgG1 antibody; alteration only in the GpH7-B3 H chain; position in EU numbering; also called He Ab) heavy 1: not shown heavy 2: not shown light: DIVMTQSPLSLPVTPGEPASISCQASESLVHSNRNTYLHWYLQKPGQSPQLLIYKVSNRFSGVPDRFSGSGSGTDFTLKISRVEAEDVGVYYCSQNTHVPPTFGQGTKVEIERTVAAPSVFIFPPSDEQLKSGTASVVCLLNNFYPREAKVQWKVDNALQSGNSQESVTEQDSKDSTYSLSSTLTLSKADYEKHKVYACEVTHQGLSSPVTKSFNRGEC",26 % of control (control = 100),42.2 % of control (control = 100),1.63
